Data reported in the supplement of paper PMC9112550, “Optimization of the antimicrobial peptide Bac7 by deep mutational scanning” (BMC Biology, 2022).

Test system: Escherichia coli TOP10
Test: shrunken log2 fold change of peptide-encoding DNA abundance (4.5 h post-induction vs induction); higher = less antimicrobial activity (less host growth inhibition)
Conditions: time post-induction: 4.5 h; library: site-saturation at positions 5, 18, 19, 20
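Also: peptides expressed intracellularly from a pBAD plasmid library in pooled LB shake-flask culture, induced with 0.3% L-arabinose, DNA abundance read by NGS, three biological replicates, DESeq2 with apeglm shrinkage.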

Sequence	shrunken log2 fold change
RRIRERPPRLPRPRPRPHYFPRP	-0.658
RRIRQRPPRLPRPRPRPGEQPRP	0.201
RRIRARPPRLPRPRPRPEIEPRP	0.719
RRIRMRPPRLPRPRPRPHWHPRP	0.0139
RRIRHRPPRLPRPRPRPHAGPRP	-0.245
RRIRERPPRLPRPRPRPTFNPRP	-0.24
RRIRPRPPRLPRPRPRPISWPRP	-0.00365
RRIRFRPPRLPRPRPRPAHQPRP	-0.15
RRIRRRPPRLPRPRPRPFLSPRP	0.128
RRIRNRPPRLPRPRPRPEFTPRP	-0.161
RRIRCRPPRLPRPRPRPWNHPRP	-0.939
RRIRDRPPRLPRPRPRPYNCPRP	-0.0352
RRIRKRPPRLPRPRPRPMAKPRP	0.545
RRIRPRPPRLPRPRPRPAWPPRP	0.6
RRIRDRPPRLPRPRPRPRTEPRP	0.0904
RRIRNRPPRLPRPRPRPMIVPRP	-0.017
RRIRLRPPRLPRPRPRPYRCPRP	-0.268
RRIRVRPPRLPRPRPRPQEIPRP	-0.0438
RRIRIRPPRLPRPRPRPEVKPRP	0.135
RRIRMRPPRLPRPRPRPWRAPRP	0.595
RRIRERPPRLPRPRPRPERSPRP	0.149
RRIRHRPPRLPRPRPRPIYGPRP	-0.0133
RRIRTRPPRLPRPRPRPLNWPRP	-0.246
RRIRSRPPRLPRPRPRPLQQPRP	0.553
RRIRPRPPRLPRPRPRPFKYPRP	-0.0171

Sequence	shrunken log2 fold change
RRIRCRPPRLPRPRPRPRWKPRP	0.847
RRIRKRPPRLPRPRPRPQSIPRP	0.147
RRIRMRPPRLPRPRPRPLLYPRP	0.0402
RRIRARPPRLPRPRPRPSFTPRP	0.582
RRIRLRPPRLPRPRPRPKTIPRP	-0.109
RRIRWRPPRLPRPRPRPNCPPRP	-0.125
RRIRNRPPRLPRPRPRPEQQPRP	0.736
RRIRRRPPRLPRPRPRPSPPPRP	0.435
RRIRRRPPRLPRPRPRPTYKPRP	-0.163
RRIRLRPPRLPRPRPRPCTPPRP	-0.172
RRIRKRPPRLPRPRPRPVHHPRP	-0.0438
RRIRHRPPRLPRPRPRPDIVPRP	-0.38
RRIRVRPPRLPRPRPRPKCEPRP	0.0936
RRIRARPPRLPRPRPRPGKIPRP	0.0623
RRIRFRPPRLPRPRPRPVWRPRP	0.441
RRIRWRPPRLPRPRPRPTMHPRP	0.454
RRIRSRPPRLPRPRPRPYHTPRP	-0.652
RRIRRRPPRLPRPRPRPFTCPRP	-0.0792
RRIRIRPPRLPRPRPRPEWKPRP	0.0442
RRIRHRPPRLPRPRPRPQAGPRP	-0.0176
RRIRDRPPRLPRPRPRPAPIPRP	0.32
RRIRQRPPRLPRPRPRPEYWPRP	0.0626
RRIRGRPPRLPRPRPRPVGHPRP	0.453
RRIRLRPPRLPRPRPRPSCWPRP	0.0662
RRIRMRPPRLPRPRPRPVGLPRP	0.383

Sequence	shrunken log2 fold change
RRIRFRPPRLPRPRPRPLNGPRP	0.073
RRIRGRPPRLPRPRPRPDVFPRP	0.438
RRIRQRPPRLPRPRPRPSQRPRP	-0.523
RRIRFRPPRLPRPRPRPIAHPRP	-0.109
RRIRFRPPRLPRPRPRPHNGPRP	-0.0493
RRIRARPPRLPRPRPRPVWIPRP	-0.0967
RRIRERPPRLPRPRPRPFIQPRP	-0.176
RRIRLRPPRLPRPRPRPSISPRP	-0.655
RRIRMRPPRLPRPRPRPRIQPRP	0.203
RRIRRRPPRLPRPRPRPLQQPRP	0.0366
RRIRRRPPRLPRPRPRPPPHPRP	0.968
RRIRERPPRLPRPRPRPEEEPRP	0.102
RRIRLRPPRLPRPRPRPWVPPRP	-0.569
RRIRGRPPRLPRPRPRPQSDPRP	0.254
RRIRWRPPRLPRPRPRPMLMPRP	-0.0339
RRIRVRPPRLPRPRPRPGAHPRP	0.0262
RRIRLRPPRLPRPRPRPLDPPRP	0.061
RRIRHRPPRLPRPRPRPNNVPRP	-0.68
RRIRERPPRLPRPRPRPPFCPRP	0.117
RRIRMRPPRLPRPRPRPSWAPRP	0.203
RRIRCRPPRLPRPRPRPYHMPRP	-0.56
RRIRMRPPRLPRPRPRPIRQPRP	-0.0521
RRIRMRPPRLPRPRPRPKSDPRP	0.466
RRIRDRPPRLPRPRPRPCGFPRP	-0.0017
RRIRGRPPRLPRPRPRPVQVPRP	0.215

Sequence	shrunken log2 fold change
RRIRKRPPRLPRPRPRPNHMPRP	-0.106
RRIRSRPPRLPRPRPRPEFTPRP	0.171
RRIRYRPPRLPRPRPRPWAEPRP	0.0276
RRIRMRPPRLPRPRPRPALCPRP	0.221
RRIRPRPPRLPRPRPRPFFNPRP	-0.365
RRIRGRPPRLPRPRPRPAEMPRP	0.621
RRIRIRPPRLPRPRPRPHCGPRP	-0.0759
RRIRYRPPRLPRPRPRPCAYPRP	-0.0775
RRIRLRPPRLPRPRPRPPENPRP	0.588
RRIRIRPPRLPRPRPRPPRSPRP	0.272
RRIRLRPPRLPRPRPRPYDQPRP	-0.562
RRIRWRPPRLPRPRPRPRPMPRP	0.427
RRIRNRPPRLPRPRPRPSLCPRP	0.0773
RRIRLRPPRLPRPRPRPCKKPRP	-0.149
RRIRFRPPRLPRPRPRPSRKPRP	-0.0267
RRIRGRPPRLPRPRPRPIPSPRP	0.485
RRIRRRPPRLPRPRPRPDCDPRP	0.222
RRIRQRPPRLPRPRPRPKGAPRP	0.0159
RRIRGRPPRLPRPRPRPSNGPRP	2.8
RRIRSRPPRLPRPRPRPLCMPRP	-0.242
RRIRRRPPRLPRPRPRPPFFPRP	0.565
RRIRYRPPRLPRPRPRPERPPRP	0.232
RRIRKRPPRLPRPRPRPPESPRP	0.303
RRIRWRPPRLPRPRPRPWNSPRP	0.0293
RRIRRRPPRLPRPRPRPETSPRP	0.4

Sequence	shrunken log2 fold change
RRIRARPPRLPRPRPRPCWGPRP	0.205
RRIRKRPPRLPRPRPRPIREPRP	0.057
RRIRCRPPRLPRPRPRPCKVPRP	-0.147
RRIRPRPPRLPRPRPRPNDAPRP	-0.025
RRIRLRPPRLPRPRPRPMPFPRP	-0.0289
RRIRIRPPRLPRPRPRPVPHPRP	0.0565
RRIRWRPPRLPRPRPRPDSLPRP	-0.12
RRIRWRPPRLPRPRPRPNMTPRP	0.0683
RRIRGRPPRLPRPRPRPCGLPRP	0.641
RRIRPRPPRLPRPRPRPFACPRP	-0.0209
RRIRRRPPRLPRPRPRPDDHPRP	-0.276
RRIRDRPPRLPRPRPRPHNNPRP	-0.604
RRIRYRPPRLPRPRPRPEYRPRP	-0.00979
RRIRVRPPRLPRPRPRPNFDPRP	-0.0598
RRIRMRPPRLPRPRPRPYVLPRP	-0.189
RRIRSRPPRLPRPRPRPMWAPRP	0.00731
RRIRCRPPRLPRPRPRPLLAPRP	0.229
RRIRNRPPRLPRPRPRPNYDPRP	-0.222
RRIRDRPPRLPRPRPRPSNNPRP	-0.487
RRIRFRPPRLPRPRPRPGLHPRP	0.159
RRIRDRPPRLPRPRPRPSDQPRP	0.204
RRIRQRPPRLPRPRPRPAIVPRP	-0.0943
RRIRHRPPRLPRPRPRPIDNPRP	-0.359
RRIRWRPPRLPRPRPRPLAHPRP	0.29
RRIRVRPPRLPRPRPRPWPWPRP	0.197

Sequence	shrunken log2 fold change
RRIRDRPPRLPRPRPRPQGQPRP	0.000653
RRIRQRPPRLPRPRPRPSTMPRP	0.0933
RRIRERPPRLPRPRPRPAWIPRP	0.121
RRIRPRPPRLPRPRPRPVVHPRP	-0.205
RRIRARPPRLPRPRPRPHIFPRP	0.141
RRIRNRPPRLPRPRPRPTCVPRP	-0.185
RRIRTRPPRLPRPRPRPCCQPRP	0.0313
RRIRCRPPRLPRPRPRPKQQPRP	0.143
RRIRPRPPRLPRPRPRPCCMPRP	-0.144
RRIRVRPPRLPRPRPRPQSQPRP	-0.214
RRIRMRPPRLPRPRPRPAGTPRP	0.627
RRIRVRPPRLPRPRPRPNGSPRP	0.00532
RRIRMRPPRLPRPRPRPICVPRP	0.196
RRIRHRPPRLPRPRPRPMWWPRP	0.177
RRIRDRPPRLPRPRPRPEPKPRP	1.4
RRIRFRPPRLPRPRPRPEERPRP	0.477
RRIRCRPPRLPRPRPRPIPYPRP	-0.0796
RRIRSRPPRLPRPRPRPKVDPRP	0.093
RRIRMRPPRLPRPRPRPMTPPRP	0.582
RRIRFRPPRLPRPRPRPPQMPRP	0.333
RRIRTRPPRLPRPRPRPMRPPRP	0.93
RRIRHRPPRLPRPRPRPCYVPRP	-1.53
RRIRLRPPRLPRPRPRPILYPRP	-0.314
RRIRPRPPRLPRPRPRPWCWPRP	0.233
RRIRKRPPRLPRPRPRPVVSPRP	-0.292
